Assay results from the supplement of paper PMC7877785.
± gives the uncertainty stated by the source.

Test: self-splicing fitness, log relative to wild type (ln ratio); higher = more splicing; Tetrahymena group I intron in knt gene, E. coli kanamycin selection, DiMSum; sequences stand for … in CUCUCU…GGAGGGAAAAGUUAUCAGGCAUGCACCUGGUAGCUAGUCUUUAAACCAAUAGAUUGCAUCGGUUUAAAAGGCAAGACCGUCAAAUUGCGGGAAAGGGGUCAACAGCCGUUCAGUACCAAGUCUCAGGGGAAACUUUGAGAUGGCCUUGCAAAGGGUAUGGUAAUAAGCUGACGGACAUGGUCCUAACCACGCAGCCAAGUCCUAAGUCAACAGAUCUUCUGUUGAUAUGGAUGCAGUUCACAGACUAAAUGUCGGUCGGGGAAGAUGUAUUCUUCUCAUAAGAUAUAGUCGGACCUCUCCUUAAUGGGAGCUAGCGGAUGAAGUGAUGCAACACUGGAGCCGCUGGGAACUAAUUUGUAUGCGAAAGUAUAUUGAUUAGUUUUGGAGUACUCGUGGUCG
In short: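 Library with all eight P1ex-region intron nucleotides randomised, intron inside the knt kanamycin-resistance gene on pET-22b(+), in E. coli BL21(DE3). Cells grew overnight at 37°C or 30°C on LB agar with or without 25 μg/mL kanamycin (plus 100 μg/mL carbenicillin, 50 μM IPTG, 0.2% rhamnose), in six replicate transformations. Pooled colonies were amplicon-sequenced on Illumina HiSeq 2500. DiMSum fitness is the error-weighted combination of wild-type-normalised replicate fold changes, kanamycin versus none.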

| Sequence | self-splicing fitness (ln) (30 °C) | self-splicing fitness (ln) (37 °C) |
| --- | --- | --- |
| GCACAGCAAUAUUACGGAGU | -1.69 ± 0.05 | -0.838 ± 0.061 |
| GCACAGCAAUAUUACGGAUA | -2.49 ± 0.17 | -1.38 ± 0.12 |
| GCACAGCAAUAUUACGGCCC | -0.235 ± 0.1 | -0.615 ± 0.13 |
| GCACAGCAAUAUUACGGGCG | -1.4 ± 0.071 | 0.0832 ± 0.081 |
| GCACAGCAAUAUUACGGGGU | -2.83 ± 0.13 | -1.35 ± 0.11 |
| GCACAGCAAUAUUACGUACC | -1.47 ± 0.096 | -0.717 ± 0.13 |
| GCACAGCAAUAUUACGUACG | -0.945 ± 0.092 | -0.0901 ± 0.098 |
| GCACAGCAAUAUUACGUAGG | -0.466 ± 0.055 | -0.109 ± 0.069 |
| GCACAGCAAUAUUACGUAGU | -0.976 ± 0.057 | -0.516 ± 0.072 |
| GCACAGCAAUAUUACGUAUA | -0.999 ± 0.06 | -0.413 ± 0.07 |
| GCACAGCAAUAUUACGUAUG | -2.21 ± 0.073 | -1.52 ± 0.079 |
| GCACAGCAAUAUUACGUCAC | -3.68 ± 0.26 | -2.42 ± 0.32 |
| GCACAGCAAUAUUACGUCAU | -1.89 ± 0.071 | -0.731 ± 0.082 |
| GCACAGCAAUAUUACGUCCG | -0.402 ± 0.09 | -0.201 ± 0.11 |
| GCACAGCAAUAUUACGUCUU | -0.723 ± 0.053 | 0.267 ± 0.064 |
| GCACAGCAAUAUUACGUGAA | 0.0235 ± 0.053 | -0.102 ± 0.068 |
| GCACAGCAAUAUUACGUGAU | -0.331 ± 0.029 | 0.114 ± 0.044 |
| GCACAGCAAUAUUACGUGGC | -4.03 ± 0.18 | -2.74 ± 0.15 |
| GCAGAGCAAUAUUACGAACU | -0.968 ± 0.14 | -1.1 ± 0.19 |
| GCAGAGCAAUAUUACGAAUA | -3.67 ± 0.32 | -2.78 ± 0.26 |
| GCAGAGCAAUAUUACGAAUG | -2.71 ± 0.35 | – |
| GCAGAGCAAUAUUACGACAC | -1.46 ± 0.2 | -0.344 ± 0.33 |
| GCAGAGCAAUAUUACGAGUU | -4.28 ± 0.16 | -1.82 ± 0.095 |
| GCAGAGCAAUAUUACGCCAG | -2.36 ± 0.48 | – |
| GCAGAGCAAUAUUACGCCCA | -1.07 ± 0.28 | -0.895 ± 0.46 |

| Sequence | self-splicing fitness (ln) (30 °C) | self-splicing fitness (ln) (37 °C) |
| --- | --- | --- |
| GCAGAGCAAUAUUACGCGAA | -4.38 ± 0.24 | -3.44 ± 0.21 |
| GCAGAGCAAUAUUACGCGUA | -2.94 ± 0.33 | -2.22 ± 0.25 |
| GCAGAGCAAUAUUACGCUCA | -1.66 ± 0.15 | -0.832 ± 0.15 |
| GCAGAGCAAUAUUACGCUUC | -3.9 ± 0.27 | -2.22 ± 0.2 |
| GCAGAGCAAUAUUACGGAAU | -3.4 ± 0.36 | -1.51 ± 0.34 |
| GCAGAGCAAUAUUACGGAUG | -2.76 ± 0.18 | -1.82 ± 0.22 |
| GCAGAGCAAUAUUACGGCCG | -3.3 ± 0.24 | -2.02 ± 0.27 |
| GCAGAGCAAUAUUACGGGAA | -2.68 ± 0.19 | -1.96 ± 0.18 |
| GCAGAGCAAUAUUACGGGCU | -1.78 ± 0.3 | -2.03 ± 0.39 |
| GCAGAGCAAUAUUACGGGGG | -3.1 ± 0.34 | -3.56 ± 0.39 |
| GCAGAGCAAUAUUACGGGUC | -3.78 ± 0.47 | -2.29 ± 0.24 |
| GCAGAGCAAUAUUACGGUAC | -2.65 ± 0.22 | -1.79 ± 0.45 |
| GCAGAGCAAUAUUACGGUCC | -2.22 ± 0.29 | -2.05 ± 0.4 |
| GCAGAGCAAUAUUACGUAAA | -2.76 ± 0.19 | -3.33 ± 0.42 |
| GCAGAGCAAUAUUACGUACC | -1.95 ± 0.17 | -0.941 ± 0.19 |
| GCAGAGCAAUAUUACGUAGU | -3.3 ± 0.28 | -3.09 ± 0.37 |
| GCAGAGCAAUAUUACGUCCC | – | -1.04 ± 0.34 |
| GCAGAGCAAUAUUACGUCGA | – | -1.58 ± 0.21 |
| GCAGAGCAAUAUUACGUGGC | – | -2.09 ± 0.32 |
| GCAGAGCAAUAUUACGUGGU | -3.94 ± 0.17 | -2.27 ± 0.18 |
| GCAGAGCAAUAUUACGUUAC | -2.97 ± 0.16 | -1.38 ± 0.17 |
| GCAUAGCAAUAUUACGAACA | -1.61 ± 0.13 | -1.34 ± 0.12 |
| GCAUAGCAAUAUUACGAGUG | -2.77 ± 0.14 | -1.76 ± 0.11 |
| GCAUAGCAAUAUUACGAUUU | -1.27 ± 0.092 | 0.225 ± 0.14 |
| GCAUAGCAAUAUUACGCACC | -1.28 ± 0.21 | – |

| Sequence | self-splicing fitness (ln) (30 °C) | self-splicing fitness (ln) (37 °C) |
| --- | --- | --- |
| GCAUAGCAAUAUUACGCCGG | -3 ± 0.28 | -1.01 ± 0.2 |
| GCAUAGCAAUAUUACGGAAC | -3.61 ± 0.29 | -3.46 ± 0.34 |
| GCAUAGCAAUAUUACGGAGC | -3.59 ± 0.25 | -2.73 ± 0.23 |
| GCAUAGCAAUAUUACGGCAU | -1.21 ± 0.096 | -1.19 ± 0.083 |
| GCAUAGCAAUAUUACGGCUU | -0.36 ± 0.11 | -0.322 ± 0.11 |
| GCAUAGCAAUAUUACGUACG | -1.42 ± 0.076 | -1.14 ± 0.09 |
| GCAUAGCAAUAUUACGUAGC | -4.39 ± 0.26 | -2.15 ± 0.16 |
| GCAUAGCAAUAUUACGUAGG | -2.32 ± 0.11 | -1.31 ± 0.13 |
| GCAUAGCAAUAUUACGUCCG | -1.44 ± 0.081 | -0.899 ± 0.13 |
| GCAUAGCAAUAUUACGUGUA | -2.43 ± 0.13 | -0.881 ± 0.084 |
| GCCAAGCAAUAUUACGAACG | -2.71 ± 0.11 | -1.46 ± 0.13 |
| GCCAAGCAAUAUUACGACAA | -3.73 ± 0.38 | -3.04 ± 0.26 |
| GCCAAGCAAUAUUACGACGA | -1.84 ± 0.15 | -1.02 ± 0.2 |
| GCCAAGCAAUAUUACGAUCC | -1.01 ± 0.14 | 0.392 ± 0.18 |
| GCCAAGCAAUAUUACGCAGC | -2.96 ± 0.2 | -2.53 ± 0.25 |
| GCCAAGCAAUAUUACGCUAG | -3.06 ± 0.15 | -2.25 ± 0.17 |
| GCCAAGCAAUAUUACGCUCA | -0.458 ± 0.093 | 0.0485 ± 0.12 |
| GCCAAGCAAUAUUACGCUGG | -4.4 ± 0.28 | -2.37 ± 0.18 |
| GCCAAGCAAUAUUACGGAUG | -1.24 ± 0.057 | -0.693 ± 0.07 |
| GCCAAGCAAUAUUACGGCCU | -3.86 ± 0.32 | -1.67 ± 0.19 |
| GCCAAGCAAUAUUACGGUCU | -2.26 ± 0.12 | -0.79 ± 0.12 |
| GCCAAGCAAUAUUACGUAGA | -1.98 ± 0.064 | -1.26 ± 0.077 |
| GCCAAGCAAUAUUACGUAGC | -2.49 ± 0.14 | -1.31 ± 0.13 |
| GCCAAGCAAUAUUACGUAUA | -2 ± 0.23 | -0.632 ± 0.15 |
| GCCAAGCAAUAUUACGUCAA | -2.75 ± 0.34 | -1.97 ± 0.22 |

| Sequence | self-splicing fitness (ln) (30 °C) | self-splicing fitness (ln) (37 °C) |
| --- | --- | --- |
| GCCAAGCAAUAUUACGUGGA | -0.758 ± 0.049 | -0.303 ± 0.052 |
| GCCAAGCAAUAUUACGUGGC | -3.84 ± 0.2 | -3.04 ± 0.28 |
| GCCAAGCAAUAUUACGUUAU | -2.76 ± 0.14 | -0.784 ± 0.1 |
| GCCAAGCAAUAUUACGUUGG | -3.36 ± 0.27 | -2.6 ± 0.19 |
| GCCCAGCAAUAUUACGAACC | -1.02 ± 0.15 | 0.156 ± 0.15 |
| GCCCAGCAAUAUUACGACAA | -2.72 ± 0.14 | -1.27 ± 0.11 |
| GCCCAGCAAUAUUACGACCG | -2.84 ± 0.18 | -1.55 ± 0.21 |
| GCCCAGCAAUAUUACGAGUA | -0.468 ± 0.14 | -0.671 ± 0.1 |
| GCCCAGCAAUAUUACGAGUG | -1.37 ± 0.076 | -0.365 ± 0.085 |
| GCCCAGCAAUAUUACGAUCG | -3.49 ± 0.12 | -1.44 ± 0.1 |
| GCCCAGCAAUAUUACGCACU | -0.532 ± 0.075 | 0.216 ± 0.12 |
| GCCCAGCAAUAUUACGCAGC | -1.83 ± 0.12 | -1.38 ± 0.13 |
| GCCCAGCAAUAUUACGCCGA | -1.86 ± 0.13 | -1.2 ± 0.12 |
| GCCCAGCAAUAUUACGCGCG | -2.16 ± 0.14 | -0.815 ± 0.13 |
| GCCCAGCAAUAUUACGCGCU | -3.29 ± 0.18 | -2.41 ± 0.2 |
| GCCCAGCAAUAUUACGCUAA | -0.87 ± 0.083 | -0.549 ± 0.09 |
| GCCCAGCAAUAUUACGGAAG | -2.76 ± 0.13 | -1.4 ± 0.11 |
| GCCCAGCAAUAUUACGGAGC | -4.06 ± 0.39 | -2.17 ± 0.34 |
| GCCCAGCAAUAUUACGGCCA | -2.6 ± 0.27 | -0.571 ± 0.18 |
| GCCCAGCAAUAUUACGGCGU | -1.12 ± 0.064 | -0.731 ± 0.089 |
| GCCCAGCAAUAUUACGGGAA | 0.0209 ± 0.051 | 0.313 ± 0.06 |
| GCCCAGCAAUAUUACGGUUU | 0.123 ± 0.05 | 0.185 ± 0.063 |
